Test results from patent US20020164620A1, “Method for identifying compounds modulating sister chromatid separation” (Boehringer Ingelheim International GmbH, priority 2001, published 2002).

Tests used:
human separase [1] = assay: SCC1 in vitro cleavage assay; format: biochemical; details: substance added to mitotically activated separase immunoprecipitates before SCC1-myc reaction mix
Description: (§1) 30 microliter beads were incubated with 40 μg bacterially expressed wildtype securin, destruction box deleted form of securin (Gmachl et al., 2000) or BSA diluted in XB+1 mM DTT for 40 min at RT. Subsequently the beads were washed with XB+1 mM DTT and with TBS+0.5 M NaCl+1 mM DTT+0.5% TWEEN20, followed by one wash with XB+1 mM DTT. To control the rebinding of securin an aliquot of 5 μl was taken per assay and subsequently analysed by immunoblotting with antibodies against separase and securin.
The beads were used for the SCC1 in vitro cleavage assay: 20 μl beads were mixed with 30 μl of the following SCC1 in vitro translation mix (SCC1 myc IVT+1 μl PLK-GST+0.3 μl […], 0.3 μl 100 mM ATP, 0.12 μl 250 mM EGTA, 13.78 μl XB+1 mM DTT) and incubated at 22° C. and 1200 rpm. 5 μl were taken per time point, the reaction was stopped by addition of SDS loading buffer. Samples were analyzed by immunoblotting with mouse monoclonal antibodies against myc (9E10).
(§2) B. Separase immunoprecipitates were incubated with 100 μM Biotin-SVEQGR-amk or with DMSO prior mitotic activation. Incubation for 10 minutes, 22° C. and 1000 rpm. After washing twice in XB+1 mM DTT the activation was performed in mitotic Xenopus egg extracts.
Interphase Xenopus egg extracts were driven into mitosis in the presence of 1 mM Biotin-SVEQGR-amk or DMSO. […]
Target sequence in this assay (Q14674 1536-2120 limits assumed): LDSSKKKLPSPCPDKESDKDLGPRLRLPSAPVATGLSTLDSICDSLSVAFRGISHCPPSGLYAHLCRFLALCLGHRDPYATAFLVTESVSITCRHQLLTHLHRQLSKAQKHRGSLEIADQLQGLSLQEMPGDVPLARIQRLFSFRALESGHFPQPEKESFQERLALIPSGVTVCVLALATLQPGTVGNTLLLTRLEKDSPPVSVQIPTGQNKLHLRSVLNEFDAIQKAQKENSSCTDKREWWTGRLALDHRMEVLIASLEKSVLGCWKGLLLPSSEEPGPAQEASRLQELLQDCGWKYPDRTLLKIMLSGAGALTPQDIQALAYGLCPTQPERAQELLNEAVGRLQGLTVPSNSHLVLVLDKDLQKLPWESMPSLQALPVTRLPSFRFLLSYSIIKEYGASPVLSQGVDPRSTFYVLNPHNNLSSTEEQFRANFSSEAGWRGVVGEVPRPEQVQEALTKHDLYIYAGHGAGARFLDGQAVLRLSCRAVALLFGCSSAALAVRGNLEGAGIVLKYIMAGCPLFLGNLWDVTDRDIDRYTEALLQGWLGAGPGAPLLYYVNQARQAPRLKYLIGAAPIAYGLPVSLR

human separase [2] = assay: Covalent labelling of separase forms by biotin peptide (avidin blot); format: binding; details: recombinant securin bound to cleaved active separase, then human peptide inhibitor (FIG. 4D)
Description: as §2
Target sequence in this assay (Q14674 1536-2120 limits assumed): as above
Interphase Xenopus egg extracts were driven into mitosis in the presence of 1 mM Biotin-SVEQGR-amk or DMSO. Those mitotic Xenopus egg extracts were used to activate a batch of separase immunoprecipitates.
Biotin labeled peptides were detected via immunoblotting according to Faleiro et al., 1997.
C. […] After 10 min incubation at 22° C. and 1250 rpm beads were again washed and analyzed by immunoblotting.
FIG. 4B: Separase IPs (see A) were either preincubated with Biotin-SVEQGR-amk (preinc. with inh. peptide) or with DMSO (preinc. with DMSO), subsequently washed and aliquots were taken. […] All samples were analysed by immunoblotting with avidin.
FIG. 4D: Activated separase immunoprecipitates bound by antibodies against the C-terminus of separase to beads were first incubated with recombinant securin or, for control, with recombinant truncated cyclinB. […] Thereafter, the immunoprecipitates were again washed and analyzed by immunoblotting.

human separase [3] = assay: Rebinding of recombinant securin to mitotically activated separase immunoprecipitates; format: binding; details: separase activated in mitotic Xenopus extracts, mostly cleaved form
Description: as §1
Target sequence in this assay (Q14674 1-1486 limits assumed): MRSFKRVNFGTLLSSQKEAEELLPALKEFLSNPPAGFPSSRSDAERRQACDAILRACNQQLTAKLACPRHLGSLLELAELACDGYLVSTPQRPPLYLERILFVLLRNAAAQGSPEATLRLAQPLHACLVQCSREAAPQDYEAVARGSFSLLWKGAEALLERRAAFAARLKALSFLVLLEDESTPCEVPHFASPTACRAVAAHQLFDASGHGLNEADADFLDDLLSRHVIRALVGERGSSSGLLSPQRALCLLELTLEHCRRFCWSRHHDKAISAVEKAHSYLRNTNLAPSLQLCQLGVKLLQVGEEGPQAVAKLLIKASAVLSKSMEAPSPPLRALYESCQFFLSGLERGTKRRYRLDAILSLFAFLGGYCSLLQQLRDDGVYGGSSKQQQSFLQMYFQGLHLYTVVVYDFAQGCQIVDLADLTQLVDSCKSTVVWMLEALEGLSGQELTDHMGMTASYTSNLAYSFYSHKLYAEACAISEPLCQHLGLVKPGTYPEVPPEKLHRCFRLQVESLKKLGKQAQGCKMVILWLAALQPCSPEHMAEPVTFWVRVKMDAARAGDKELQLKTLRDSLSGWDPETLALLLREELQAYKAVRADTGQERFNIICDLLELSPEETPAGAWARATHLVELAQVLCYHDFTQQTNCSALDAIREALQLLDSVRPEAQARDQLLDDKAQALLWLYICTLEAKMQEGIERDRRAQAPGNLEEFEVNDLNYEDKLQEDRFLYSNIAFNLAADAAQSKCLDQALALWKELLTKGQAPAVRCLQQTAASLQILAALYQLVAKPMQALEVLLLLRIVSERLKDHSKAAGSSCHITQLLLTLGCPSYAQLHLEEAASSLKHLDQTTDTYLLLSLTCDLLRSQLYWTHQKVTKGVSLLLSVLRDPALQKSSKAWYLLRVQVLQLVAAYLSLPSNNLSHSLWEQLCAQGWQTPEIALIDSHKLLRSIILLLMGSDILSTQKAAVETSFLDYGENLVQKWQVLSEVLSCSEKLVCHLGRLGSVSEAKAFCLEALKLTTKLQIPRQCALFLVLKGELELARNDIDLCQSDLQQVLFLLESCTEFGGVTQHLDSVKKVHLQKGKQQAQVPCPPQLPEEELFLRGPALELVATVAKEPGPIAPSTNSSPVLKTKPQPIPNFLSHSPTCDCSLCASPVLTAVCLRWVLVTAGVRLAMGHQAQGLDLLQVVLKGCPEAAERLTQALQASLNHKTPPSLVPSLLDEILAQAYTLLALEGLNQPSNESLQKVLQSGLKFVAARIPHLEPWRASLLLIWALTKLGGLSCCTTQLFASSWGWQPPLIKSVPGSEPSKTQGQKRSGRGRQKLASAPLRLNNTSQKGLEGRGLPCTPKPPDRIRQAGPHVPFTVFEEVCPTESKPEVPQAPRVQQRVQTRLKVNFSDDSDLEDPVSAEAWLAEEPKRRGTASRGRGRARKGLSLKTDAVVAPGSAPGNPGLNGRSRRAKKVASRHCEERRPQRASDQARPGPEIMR
Target sequence in this assay (Q14674 1536-2120 limits assumed): as the sequence (Q14674 1536-2120 limits assumed) above
FIG. 1A: Separase immunoprecipitates (separase IP) obtained from Nocodazole arrested HeLa cells and bound by antibodies against the C-terminus of separase coupled to beads were activated in mitotic Xenopus egg extracts (separase IP^mitotic). Mitotically activated separase immunoprecipitates were either incubated in buffer, wildtype securin, destruction box deleted securin or in BSA. Aliquots were taken and analysed by immunoblotting with antibodies against separase and securin.

SCC1 cleavage by separase (human separase [1]): no cleavage of SCC1 was detected
binding of securin to separase (human separase [3]): able to bind to separase
B1: WT-securin: human securin expressed in E. coli and purified, the wildtype protein (protein)
chain: MATLIYVDKENGEPGTRVVAKDGLKLGSGPSIKALDGRSQVSTPRFGKTFDAPPALPKATRKALGTVNRATEKSVKTKGPLKQKQPSFSAKKMTEKTVKAKSSVPASDDAYPEIEKFFPFNPLDFESFDLPEEHQIAHLPLSGVPLMILDEERELEKLFQLGPPSPVKMPSPPWESNLLQSPSSILSTLDVELPPVCCDIDI
binding of peptide inhibitors to the active site of separase (human separase [2]): prevented the binding of peptide inhibitors to the active site of separase
